T1: synthetic peptide hFn14 sub-domain 1p (human, biotin on the added C-terminal lysine)
T1 construct: synthesised by GLBiochem
T1 peptide: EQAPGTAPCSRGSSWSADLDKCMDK


How the values were obtained:
[1] = molecular target: phage expressed hFn14 mutant R58A (human, UniProt Q9NP84 28-77); assay: phage ELISA (Method 2), antibody on plate, phage dilution 1/X on the x axis
Excerpt: FIG. 26 is a graphical representation showing results of an ELISA testing the reactivity of mutant hFn14 phage construct comprising a R58A mutation with the anti-Fn14 monoclonal antibodies CRCBT-06-001, CRCBT-06-002, CRCBT-06-004 compared to ITEM-1 and ITEM-4. Binding was detected using Biotin-conjugated anti-M13-phage monoclonal antibody followed by HRP-conjugated Streptavidin and TMB substrate. Optical density at 450 nm was quantified using a Spectramax spectrophotometer. Error bars for each dilution represent the standard deviation of duplicate assays. X axis=dilution of phage. Methods according to Epitope mapping using phage expressed Fn14—Method 2
The wells of Maxisorp immunoplates (Nunc) were coated overnight at 4° C. with the target monoclonal antibodies or recombinant Tweak-Fc at a concentration of 1.5 μg/ml in PBS. mAb 5G8 was used as a negative control for ELISA plates coated with tested antibodies. […] 10-fold serial dilutions of phage were made using PBS solution and phage dilutions were added to the coated, blocked ELISA plates for 1 hour, shaking at room temperature. […]
Method A: HRP-conjugated anti-M13-phage antibody (GE Healthcare) at a 1/5000 dilution in PBS was then added to the wells of the ELISA plates for 1 hour, shaking at room temperature. […] Optical density at 450 nm was quantified using a Spectramax absorbance spectrophotometer.

[2] = molecular target: phage-displayed hFn14 extracellular domain mutant M50A (human, UniProt Q9NP84 28-77); assay: phage ELISA, antibody on plate, 10-fold phage dilutions
phage-displayed hFn14 extracellular domain mutant M50A, sequence (Q9NP84 28-77 M50A): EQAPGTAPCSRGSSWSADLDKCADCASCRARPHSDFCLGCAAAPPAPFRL
Excerpt: (§1) ELISAs showing the reactivity of the repertoire of hFn14 phage constructs with the anti-Fn14 monoclonal antibodies CRCBT-06-001, CRCBT-06-002, CRCBT-06-003 and CRCBT-06-004. Binding was detected using HRP-conjugated anti-M13-phage polyclonal IgG and TMB substrate. Optical density at 450 nm was quantified using a Spectramax spectrophotometer. Error bars for each dilution represent the standard deviation of duplicate assays. In this figure, reference to “FN14 Ectodomain” is a reference to the extracellular domain of hFn14. Methods according to Epitope mapping using phage expressed Fn14—Method 1.
(§2) The wells of Maxisorp immunoplates (Nunc) were coated overnight at 4° C. with the target monoclonal antibodies or recombinant Tweak-Fc at a concentration of 2 μg/mL in PBS. MAb 5G8 was used as a negative control for ELISA plates coated with tested antibodies. Recombinant Fc alone was used as a negative control for ELISA plates coated with recombinant Tweak-Fc. […] 10-fold serial dilutions of phage were made using 5% skim milk/PBS solution in 2 ml-well microtiter plates and phage dilutions were added to the coated, blocked ELISA plates for 1 hr, with vigorous shaking at room temperature. Phage were subsequently removed from the wells and the ELISA plates were washed 4× with PBS/0.05% Tween 20. HRP-conjugated anti-M13-phage polyclonal IgG diluted in PBS was then added to the wells of the ELISA plates for 1 hr, with vigorous shaking at room temperature. The antibody solution was then removed from the wells and the ELISA plates were washed 5× with PBS/0.05% Tween 20. ELISAs were developed using TMB substrate and the reaction was stopped using 2 M H₂SO₄ solution. Optical density at 450 nm was quantified using a Spectramax absorbance spectrophotometer.

[3] = molecular target: phage-displayed hFn14 extracellular domain mutant K48A (human, UniProt Q9NP84 28-77); assay: as above
phage-displayed hFn14 extracellular domain mutant K48A, sequence (Q9NP84 28-77 K48A): as the sequence (Q9NP84 28-77 M50A) above, with K21A, A23M counted along it
Excerpt: as §1, §2

[4] = molecular target: phage-displayed hFn14 extracellular domain mutant D62E (human, UniProt Q9NP84 28-77); assay: as above
phage-displayed hFn14 extracellular domain mutant D62E, sequence (Q9NP84 28-77 D62E): as the sequence (Q9NP84 28-77 M50A) above, with A23M, D35E counted along it
Excerpt: as §1, §2

[5] = molecular target: phage-displayed hFn14 extracellular domain mutant D45A (human, UniProt Q9NP84 28-77); assay: as above
phage-displayed hFn14 extracellular domain mutant D45A, sequence (Q9NP84 28-77 D45A): as the sequence (Q9NP84 28-77 M50A) above, with D18A, A23M counted along it
Excerpt: as §1, §2

[6] = molecular target: T1, synthetic peptide hFn14 sub-domain 1p; assay: ELISA on biotinylated synthetic peptide
Protocol: Peptides representing sub-domains 1p, 2 and 3 of hFn14 (FIG. 20, Panels B and C and FIG. 14, Panel A) and for disulfide pair mutants (Cys3&6ΔS and Cys4&5ΔS; FIG. 20 Panels D and E) were synthesized by GLBiochem Ltd. (Shanghai, China) and the cysteine residues for disulfide bonds were chosen as described in the solution structure by He et al., (2009). An additional lysine residue was added to the C-terminus in order to attach a biotin moiety and to enable the peptides to bind to neutravidin coated plates (Pre-blocked; Pierce). For these experiments, a control peptide with a biotin at the C-terminus was used as a negative control and isotype control antibodies were also used.
The ELISA was performed essentially according to the manufacturer's recommended protocol (Pierce). Briefly, peptide was coated onto wells (in duplicate) at 1-10 μg/ml for 2 hours at room temperature. Wells were washed in PBS/0.05% Tween 20/0.1% BSA 3 times and dilutions of each antibody were added in wash buffer for 1 hour with gentle agitation. After another three washes anti-mouse HRP-conjugated to horse radish peroxidase (HRP; Chemicon) was added at 1/1000 dilution for 1 hour shaking. Finally, after 4 further washes the plate was developed using TMB (3,3′,5,5′-tetramethylbenzidine) substrate (Pierce), and the reaction was stopped using 2M H2SO4 solution. Optical density at 450 nm was quantified using a Spectromax absorbance spectrophotometer.

binding result [1]	binding result [2]	binding result [3]	binding result [4]	binding result [5]	binding result [6]	Binder
binds	binds	binds	binds	binds	no binding	CRCBT-06-001 (antibody, IgG2b, V domains shown) VH: QVQLQQSGGGLVQPGGSMKLSCIASGFTFSSYWMSWVRQSPEKGLEWVAEIRSKSDNYATHYAESVKGKFTISRDDSKSRFFLQMNNLRAEDTGIYYCSSTYADYFHYWGQGTDLTVSS VL: DIVMTQTPASLAVSLGQRATISCRASQSVSTSTYSYMHWYQQKPGQPPKLLIKYASSLESGVPARFSGSGSGTDFTLNIHPVEEDDTATYYCQHSWEIPYTFGGGTKLEIKR
binds	binds	binds	binds	binds	no binding	CRCBT-06-002 (antibody, IgG1, V domains shown) VH: EVKLQQSGGGLVQPGGSMKLSCVASGFTFSYYWMNWVRQSPEQGLEWIAEIRLQSNDYPTHYAESVKGRFTISRDDSKNSVYLQMNNLRPEDTGIYYCACRYADYFDHWGQGTTLTVSS VL: DTVLTQSPASLVVSLGQRATISCRASQSVSTSDYSYIHWYQQKPGQPPKFLIKYASNRDSGVPARFSGSGSGTDFTLNIHPVEEDDTAIYYCQHSWEIPPTFGAGTKLELQR
